Test results as given in PMC5531588, “Staphylococcus aureus single-stranded DNA-binding protein SsbA can bind but cannot stimulate PriA helicase”.

Experiments:
[1] = biological target: Staphylococcus aureus single-stranded DNA-binding protein SsbA (S. aureus subsp. aureus ED98); assay: SEC; purified SaSsbA (2 mg/mL) on Superdex 200 prep grade in Buffer B (20 mM HEPES, 100 mM NaCl, pH 7.0), calibrated with proteins of known molecular weight
[2] = biological target: Staphylococcus aureus PriA helicase (S. aureus); assay: SPR; SaPriA immobilised on CM5 chip, Biacore T200, 293 K, 40 mM Tris, 200 mM NaCl, 0.05% Tween-20, pH 8.0; analyte injected 120 s at 30 uL/min; 1:1 (Langmuir) model
SaSsbA = SaSsbA (Staphylococcus aureus subsp. aureus ED98, UniProt A0A0D1JHQ1 1-167); assay: EMSA; 100 mM NaCl; EMSA: 20 mM Tris-HCl pH 8.0, 100 mM NaCl (or 0.4 M NaCl), 1.7 nM DNA, 25 C, 30 min; native 8% PAGE in TBE at 4 C; conditions: protein: recombinant; chain copies: 4; label: 32P (5' end, T4 PNK); single strand

Molecule | stoichiometry N [1] | Kd [2] [nM] | apparent K (half saturation) (SaSsbA) [nM]
Staphylococcus aureus single-stranded DNA-binding protein SsbA (natural protein) | 4 | 46 | –
TTTTTTTTTTTTTTTTTTTTTTTTTTTTTTTTTTTTTTTT (ssDNA) [dT40] | – | – | 90 ± 5
TTTTTTTTTTTTTTTTTTTT (ssDNA) [dT20] | – | – | 292 ± 28
TTTTTTTTTTTTTTTTTTTTTTTTTTTTTT (ssDNA) [dT30] | – | – | 186 ± 20
